This experiment concerns the target human CD3 (human, UniProt P07766 23-207; P09693 23-182; P04234 22-171; P20963 22-164). Kind of experiment: cell-based or functional assay.

Sequence of human CD3 (P07766 23-207, chain 1 of 4): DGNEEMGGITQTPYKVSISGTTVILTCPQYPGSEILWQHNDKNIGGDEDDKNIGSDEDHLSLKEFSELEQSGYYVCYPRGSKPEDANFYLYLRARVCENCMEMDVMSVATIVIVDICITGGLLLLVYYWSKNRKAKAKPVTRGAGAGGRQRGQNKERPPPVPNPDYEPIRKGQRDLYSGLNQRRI
Sequence of human CD3 (P09693 23-182, chain 2 of 4): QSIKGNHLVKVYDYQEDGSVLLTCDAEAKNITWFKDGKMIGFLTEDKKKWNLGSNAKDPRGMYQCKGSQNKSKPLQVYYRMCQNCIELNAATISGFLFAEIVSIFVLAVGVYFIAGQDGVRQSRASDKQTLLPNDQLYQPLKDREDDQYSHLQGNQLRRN
Sequence of human CD3 (P04234 22-171, chain 3 of 4): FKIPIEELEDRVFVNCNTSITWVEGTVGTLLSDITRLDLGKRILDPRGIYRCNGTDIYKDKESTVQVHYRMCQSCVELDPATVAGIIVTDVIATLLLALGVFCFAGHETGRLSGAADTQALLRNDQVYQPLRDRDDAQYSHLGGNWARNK
Sequence of human CD3 (P20963 22-164, chain 4 of 4): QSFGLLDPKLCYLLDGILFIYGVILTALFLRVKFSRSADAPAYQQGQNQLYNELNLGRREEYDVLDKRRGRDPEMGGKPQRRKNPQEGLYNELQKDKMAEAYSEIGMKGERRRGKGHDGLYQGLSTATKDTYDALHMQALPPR

B1: CD33/CD3 2×2 T-cell engager 10 (bispecific antibody)
chain: DIQMTQSPSSLSASVGDRVTITCRSSTGAVTTSNYANWVQQKPGKAPKGLIGGTNKRAPGVPSRFSGSLIGDKATLTISSLQPEDFATYYCALWYSNLWVFGQGTKVEIKGGSGGSQVQLVQSGAEVKKPGASVKVSCKASGYTFTSYDINWVRQAPGQGLEWMGWMNPNSGNTGFAQKFQGRVTMTRDTSTSTVYMELSSLRSEDTAVYYCARDRANTDYSFGMDVWGQGTLVTVSSGGSGQSVLTQPPSASGTPGQRVTISCSGSRSNIGSNTVNWYQQLPGTAPKLLIYGNNQRPSGVPDRFSGSKSGTSASLAISGLQSEDEADYYCATWDDSLIGWVFGGGTKLTVLGGSGGSEVQLVESGGGLVQPGGSLRLSCAASGFTFSTYAMNWVRQAPGKGLEWVGRIRSKYNNYATYYADSVKDRFTISRDDSKNSLYLQMNSLKTEDTAVYYCARHGNFGNSYVSWFAYWGQGTLVTVSSAAAGSHHHHHH
As for B1, the “CD25 Induction EC50 (PBMC, 24 h)” value came out at 10 pM and the “CD69 Induction EC50 (PBMC, 24 h)” value was determined as 6 pM.

B2: CD33/CD3 2×2 T-cell engager 03 (bispecific antibody)
chain: DIQMTQSPSSLSASVGDRVTITCRSSTGAVTTSNYANWVQQKPGKAPKGLIGGTNKRAPGVPARFSGSGSGTDFTLTISSLQPEDFATYYCALWYSNLWVFGQGTKVEIKGGSGGSQVQLVQSGAEVKKPGASVKVSCKASGYTFTSYDINWVRQAPGQGLEWMGWMNPNSGNTGFAQKFQGRVTMTRDTSTSTVYMELSSLRSEDTAVYYCARDRANTDYSFGMDVWGQGTLVTVSSGGSGQSVLTQPPSASGTPGQRVTISCSGSRSNIGSNTVNWYQQLPGTAPKLLIYGNNQRPSGVPDRFSGSKSGTSASLAISGLQSEDEADYYCATWDDSLIGWVFGGGTKLTVLGGSGGSEVQLVESGGGLVQPGGSLRLSCAASGFTFSTYAMNWVRQAPGKGLEWVGRIRSKYNNYATYYADSVKDRFTISRDDSKNSLYLQMNSLKTEDTAVYYCARHGNFGNSYVSWFAYWGQGTLVTVSSAAAGSHHHHHH
For B2, the “CD25 Induction EC50 (PBMC, 24 h)” value is 117 pM and the “CD69 Induction EC50 (PBMC, 24 h)” value stood at 87 pM.

B3: CD33/CD3 2×2 T-cell engager 11 (bispecific antibody)
chain: DIQMTQSPSSLSASVGDRVTITCRSSTGAVTTSNYANWVQQKPGKAPKGLIGGTNKRAPGVPSRFSGSLIGDKATLTISSLQPEDFATYYCALWYSNLWVFGQGTKVEIKGGSGGSQVQLVQSGAEVKKPGASVKVSCKASGYTFTSYDINWVRQAPGQGLEWMGWMNPNSGNTGFAQKFQGRVTMTRDTSTSTVYMELSSLRSEDTAVYYCARDRANTDYSLGMDVWGQGTLVTVSSGGSGQSVLTQPPSASGTPGQRVTISCSGSRSNIGSNTVNWYQQLPGTAPKLLIYGNNQRPSGVPDRFSGSKSGTSASLAISGLQSEDEADYYCATWDDSLIGWVFGGGTKLTVLGGSGGSEVQLVESGGGLVQPGGSLRLSCAASGFTFSTYAMNWVRQAPGKGLEWVGRIRSKYNNYATYYADSVKDRFTISRDDSKNSLYLQMNSLKTEDTAVYYCARHGNFGNSYVSWFAYWGQGTLVTVSSAAAGSHHHHHH
In the case of B3, the “CD25 Induction EC50 (PBMC, 24 h)” value was 11 pM and the “CD69 Induction EC50 (PBMC, 24 h)” value stood at 5 pM.

B4: CD33/CD3 2×2 T-cell engager 04 (bispecific antibody)
chain: DIQMTQSPSSLSASVGDRVTITCRSSTGAVTTSNYANWVQQKPGKAPKGLIGGTNKRAPGVPARFSGSGSGTDFTLTISSLQPEDFATYYCALWYSNLWVFGQGTKVEIKGGSGGSQVQLVQSGAEVKKPGASVKVSCKASGYTFTSYDINWVRQAPGQGLEWMGWMNPNSGNTGFAQKFQGRVTMTRDTSTSTVYMELSSLRSEDTAVYYCARDRANTDYSLGMDVWGQGTLVTVSSGGSGQSVLTQPPSASGTPGQRVTISCSGSRSNIGSNTVNWYQQLPGTAPKLLIYGNNQRPSGVPDRFSGSKSGTSASLAISGLQSEDEADYYCATWDDSLIGWVFGGGTKLTVLGGSGGSEVQLVESGGGLVQPGGSLRLSCAASGFTFSTYAMNWVRQAPGKGLEWVGRIRSKYNNYATYYADSVKDRFTISRDDSKNSLYLQMNSLKTEDTAVYYCARHGNFGNSYVSWFAYWGQGTLVTVSSAAAGSHHHHHH
For B4, the “CD25 Induction EC50 (PBMC, 24 h)” value came to 94 pM and the “CD69 Induction EC50 (PBMC, 24 h)” value was determined as 62 pM.

B5: CD33/CD3 2×2 T-cell engager 02 (bispecific antibody)
chain: DIQMTQSPSSLSASVGDRVTITCRSSTGAVTTSNYANWVQQKPGKAPKGLIGGTNKRAPGVPARFSGSGSGTDFTLTISSLQPEDFATYYCALWYSNLWVFGQGTKVEIKGGSGGSQVQLVQSGAEVKKPGASVKVSCKASGYTFTSYDINWVRQAPGQGLEWMGWMNPNSGNTGFAQKFQGRVTMTRDTSTSTVYMELSSLRSEDTAVYYCARDRAVTDYYYGMDVWGQGTLVTVSSGGSGQSVLTQPPSASGTPGQRVTISCSGSRSNIGSNTVNWYQQLPGTAPKLLIYGNNQRPSGVPDRFSGSKSGTSASLAISGLQSEDEADYYCATWDDSLIGWVFGGGTKLTVLGGSGGSEVQLVESGGGLVQPGGSLRLSCAASGFTFSTYAMNWVRQAPGKGLEWVGRIRSKYNNYATYYADSVKDRFTISRDDSKNSLYLQMNSLKTEDTAVYYCARHGNFGNSYVSWFAYWGQGTLVTVSSAAAGSHHHHHH
Consider B5, for which the “CD25 Induction EC50 (PBMC, 24 h)” value was 42 pM and the “CD69 Induction EC50 (PBMC, 24 h)” value amounted to 27 pM.

B6: CD33/CD3 2×2 T-cell engager 09 (bispecific antibody)
chain: DIQMTQSPSSLSASVGDRVTITCRSSTGAVTTSNYANWVQQKPGKAPKGLIGGTNKRAPGVPSRFSGSLIGDKATLTISSLQPEDFATYYCALWYSNLWVFGQGTKVEIKGGSGGSQVQLVQSGAEVKKPGASVKVSCKASGYTFTSYDINWVRQAPGQGLEWMGWMNPNSGNTGFAQKFQGRVTMTRDTSTSTVYMELSSLRSEDTAVYYCARDRANTDFSYGMDVWGQGTLVTVSSGGSGQSVLTQPPSASGTPGQRVTISCSGSRSNIGSNTVNWYQQLPGTAPKLLIYGNNQRPSGVPDRFSGSKSGTSASLAISGLQSEDEADYYCATWDDSLIGWVFGGGTKLTVLGGSGGSEVQLVESGGGLVQPGGSLRLSCAASGFTFSTYAMNWVRQAPGKGLEWVGRIRSKYNNYATYYADSVKDRFTISRDDSKNSLYLQMNSLKTEDTAVYYCARHGNFGNSYVSWFAYWGQGTLVTVSSAAAGSHHHHHH
For the molecule B6, the “CD25 Induction EC50 (PBMC, 24 h)” value is 11 pM and the “CD69 Induction EC50 (PBMC, 24 h)” value is 7 pM.

B7: CD33/CD3 2×2 T-cell engager 01 (bispecific antibody)
chain: DIQMTQSPSSLSASVGDRVTITCRSSTGAVTTSNYANWVQQKPGKAPKGLIGGTNKRAPGVPARFSGSGSGTDFTLTISSLQPEDFATYYCALWYSNLWVFGQGTKVEIKGGSGGSQVQLVQSGAEVKKPGASVKVSCKASGYTFTSYDINWVRQAPGQGLEWMGWMNPNSGNTGFAQKFQGRVTMTRDTSTSTVYMELSSLRSEDTAVYYCARDRANTDFSYGMDVWGQGTLVTVSSGGSGQSVLTQPPSASGTPGQRVTISCSGSRSNIGSNTVNWYQQLPGTAPKLLIYGNNQRPSGVPDRFSGSKSGTSASLAISGLQSEDEADYYCATWDDSLIGWVFGGGTKLTVLGGSGGSEVQLVESGGGLVQPGGSLRLSCAASGFTFSTYAMNWVRQAPGKGLEWVGRIRSKYNNYATYYADSVKDRFTISRDDSKNSLYLQMNSLKTEDTAVYYCARHGNFGNSYVSWFAYWGQGTLVTVSSAAAGSHHHHHH
As for B7, the “CD25 Induction EC50 (PBMC, 24 h)” value came to 92 pM and the “CD69 Induction EC50 (PBMC, 24 h)” value worked out at 91 pM.

The values above are taken from patent publication US20210324076A1 (AMPHIVENA THERAPEUTICS, published 2021).
